Laboratory results reported in the supplement of paper PMC9112550, “Optimization of the antimicrobial peptide Bac7 by deep mutational scanning” (BMC Biology, 2022).

test system: Escherichia coli TOP10; experiment: shrunken log2 fold change of peptide-encoding DNA abundance (4.5 h post-induction vs induction); higher = less antimicrobial activity (less host growth inhibition); settings: time post-induction: 4.5 h; library: site-saturation at positions 5, 18, 19, 20
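Note: peptides expressed intracellularly from a pBAD plasmid library in pooled LB shake-flask culture, induced with 0.3% L-arabinose, DNA abundance read by NGS, three biological replicates, DESeq2 with apeglm shrinkage.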

Row | Sequence | shrunken log2 fold change
1 | RRIRGRPPRLPRPRPRPITIPRP | 0.0958
2 | RRIRHRPPRLPRPRPRPGSVPRP | -0.31
3 | RRIRSRPPRLPRPRPRPMPFPRP | -0.0591
4 | RRIRLRPPRLPRPRPRPNMKPRP | -0.173
5 | RRIRFRPPRLPRPRPRPKVYPRP | -0.382
6 | RRIRGRPPRLPRPRPRPHAYPRP | 2.11
7 | RRIRGRPPRLPRPRPRPYCSPRP | -0.0241
8 | RRIRYRPPRLPRPRPRPPYAPRP | -0.265
9 | RRIRFRPPRLPRPRPRPDLHPRP | -0.274
10 | RRIRIRPPRLPRPRPRPHITPRP | -0.66
11 | RRIRKRPPRLPRPRPRPSKYPRP | -0.00772
12 | RRIRLRPPRLPRPRPRPEISPRP | 0.099
13 | RRIRERPPRLPRPRPRPGRDPRP | 0.419
14 | RRIRARPPRLPRPRPRPKTLPRP | 0.343
15 | RRIRRRPPRLPRPRPRPAWFPRP | 0.22
16 | RRIRIRPPRLPRPRPRPNYYPRP | -1.07
17 | RRIRERPPRLPRPRPRPHSHPRP | -0.269
18 | RRIRPRPPRLPRPRPRPHCAPRP | 0.228
19 | RRIRPRPPRLPRPRPRPNFHPRP | -0.169
20 | RRIRPRPPRLPRPRPRPAKPPRP | 0.196
21 | RRIRCRPPRLPRPRPRPPVKPRP | -0.00107
22 | RRIRGRPPRLPRPRPRPDFGPRP | 0.0741
23 | RRIRSRPPRLPRPRPRPTREPRP | 0.536
24 | RRIRYRPPRLPRPRPRPPISPRP | -0.501
25 | RRIRGRPPRLPRPRPRPGMYPRP | 0.191

Row | Sequence | shrunken log2 fold change
26 | RRIRQRPPRLPRPRPRPHEVPRP | -0.0426
27 | RRIRVRPPRLPRPRPRPDKIPRP | -0.19
28 | RRIRGRPPRLPRPRPRPFHFPRP | 0.119
29 | RRIRKRPPRLPRPRPRPGTKPRP | 0.0906
30 | RRIRNRPPRLPRPRPRPTDTPRP | -0.08
31 | RRIRLRPPRLPRPRPRPTLLPRP | 0.0589
32 | RRIRGRPPRLPRPRPRPYPYPRP | -0.095
33 | RRIRARPPRLPRPRPRPGKFPRP | -0.167
34 | RRIRKRPPRLPRPRPRPISSPRP | -0.0713
35 | RRIRLRPPRLPRPRPRPCVRPRP | 0.0511
36 | RRIRQRPPRLPRPRPRPWLCPRP | -0.0571
37 | RRIRHRPPRLPRPRPRPFYGPRP | -0.0135
38 | RRIRIRPPRLPRPRPRPSEPPRP | -0.192
39 | RRIRIRPPRLPRPRPRPKKYPRP | -0.546
40 | RRIRGRPPRLPRPRPRPDAVPRP | 1.81
41 | RRIRPRPPRLPRPRPRPKCGPRP | 0.574
42 | RRIRQRPPRLPRPRPRPYYYPRP | -1.18
43 | RRIRYRPPRLPRPRPRPWFLPRP | -1.18
44 | RRIRNRPPRLPRPRPRPAGRPRP | 0.486
45 | RRIRNRPPRLPRPRPRPNLAPRP | -0.137
46 | RRIRQRPPRLPRPRPRPLHCPRP | -0.183
47 | RRIRWRPPRLPRPRPRPWIEPRP | 0.0929
48 | RRIRLRPPRLPRPRPRPRSNPRP | 1.62
49 | RRIRQRPPRLPRPRPRPLIFPRP | -0.432
50 | RRIRERPPRLPRPRPRPVPIPRP | 0.343

Row | Sequence | shrunken log2 fold change
51 | RRIRRRPPRLPRPRPRPPGGPRP | 0.348
52 | RRIRQRPPRLPRPRPRPRCWPRP | 0.257
53 | RRIRVRPPRLPRPRPRPAFTPRP | -0.124
54 | RRIRGRPPRLPRPRPRPKGHPRP | 0.67
55 | RRIRGRPPRLPRPRPRPDNRPRP | -0.0893
56 | RRIRCRPPRLPRPRPRPKWEPRP | 0.173
57 | RRIRSRPPRLPRPRPRPEESPRP | -0.048
58 | RRIRTRPPRLPRPRPRPCWGPRP | -0.234
59 | RRIRDRPPRLPRPRPRPKCLPRP | 0.313
60 | RRIRWRPPRLPRPRPRPEWWPRP | -0.0316
61 | RRIRARPPRLPRPRPRPVRQPRP | 0.855
62 | RRIRTRPPRLPRPRPRPWTTPRP | 0.176
63 | RRIRPRPPRLPRPRPRPDLAPRP | 0.316
64 | RRIRSRPPRLPRPRPRPQVNPRP | -0.00752
65 | RRIRIRPPRLPRPRPRPRVTPRP | -0.0426
66 | RRIRSRPPRLPRPRPRPAMTPRP | 0.459
67 | RRIRLRPPRLPRPRPRPIQAPRP | 0.0789
68 | RRIRFRPPRLPRPRPRPCKVPRP | 0.0595
69 | RRIRMRPPRLPRPRPRPKIGPRP | -0.0597
70 | RRIRRRPPRLPRPRPRPTKFPRP | 0.0982
71 | RRIRMRPPRLPRPRPRPQWVPRP | 0.0772
72 | RRIRLRPPRLPRPRPRPVFAPRP | 0.223
73 | RRIRWRPPRLPRPRPRPHLLPRP | -0.66
74 | RRIRYRPPRLPRPRPRPRHNPRP | -0.477
75 | RRIRGRPPRLPRPRPRPNEEPRP | 0.621

Row | Sequence | shrunken log2 fold change
76 | RRIRHRPPRLPRPRPRPAWDPRP | -0.0216
77 | RRIRKRPPRLPRPRPRPTFVPRP | 0.362
78 | RRIRERPPRLPRPRPRPMYCPRP | -0.064
79 | RRIRIRPPRLPRPRPRPASDPRP | -0.077
80 | RRIRERPPRLPRPRPRPCICPRP | -0.0733
81 | RRIRDRPPRLPRPRPRPIQHPRP | -0.444
82 | RRIRKRPPRLPRPRPRPQDLPRP | -0.000826
83 | RRIRVRPPRLPRPRPRPMEMPRP | -0.0249
84 | RRIRCRPPRLPRPRPRPKTHPRP | -0.115
85 | RRIRGRPPRLPRPRPRPWASPRP | -0.00862
86 | RRIRRRPPRLPRPRPRPFSPPRP | -0.173
87 | RRIRDRPPRLPRPRPRPLLDPRP | 0.17
88 | RRIRWRPPRLPRPRPRPEVLPRP | 0.167
89 | RRIRLRPPRLPRPRPRPHHMPRP | -0.353
90 | RRIRDRPPRLPRPRPRPFNHPRP | -0.368
91 | RRIRYRPPRLPRPRPRPLVYPRP | -1.16
92 | RRIRPRPPRLPRPRPRPCTQPRP | -0.106
93 | RRIRNRPPRLPRPRPRPRNRPRP | -0.000801
94 | RRIRPRPPRLPRPRPRPTEQPRP | 0.307
95 | RRIRQRPPRLPRPRPRPGYAPRP | 0.0993
96 | RRIRCRPPRLPRPRPRPMIFPRP | -0.369
97 | RRIRWRPPRLPRPRPRPNTAPRP | 0.055
98 | RRIRRRPPRLPRPRPRPRGKPRP | 0.694
99 | RRIRYRPPRLPRPRPRPCVVPRP | -0.0208
100 | RRIRFRPPRLPRPRPRPDMTPRP | -0.0215

Row | Sequence | shrunken log2 fold change
101 | RRIRFRPPRLPRPRPRPCTFPRP | -0.0554
102 | RRIRQRPPRLPRPRPRPGLKPRP | 0.0245
103 | RRIRHRPPRLPRPRPRPAFQPRP | -0.0477
104 | RRIRSRPPRLPRPRPRPTFMPRP | -0.335
105 | RRIRKRPPRLPRPRPRPSAWPRP | 0.534
106 | RRIRARPPRLPRPRPRPCEKPRP | 0.0244
107 | RRIRRRPPRLPRPRPRPGQQPRP | 0.119
108 | RRIRPRPPRLPRPRPRPCWEPRP | -0.0268
109 | RRIRNRPPRLPRPRPRPGTQPRP | -0.128
110 | RRIRGRPPRLPRPRPRPKRDPRP | 0.738
111 | RRIRHRPPRLPRPRPRPCICPRP | -0.347
112 | RRIRFRPPRLPRPRPRPMDVPRP | -0.0444
113 | RRIRLRPPRLPRPRPRPRLLPRP | 0.167
114 | RRIRIRPPRLPRPRPRPFHGPRP | -0.146
115 | RRIRLRPPRLPRPRPRPDNGPRP | -0.0567
116 | RRIRFRPPRLPRPRPRPCSGPRP | -0.427
117 | RRIRYRPPRLPRPRPRPPYVPRP | -0.266
118 | RRIRMRPPRLPRPRPRPQQAPRP | 0.0303
119 | RRIRQRPPRLPRPRPRPNNPPRP | -0.282
120 | RRIRARPPRLPRPRPRPMSYPRP | 0.163
121 | RRIRSRPPRLPRPRPRPIDLPRP | -0.546
122 | RRIRNRPPRLPRPRPRPATLPRP | -0.365
123 | RRIRERPPRLPRPRPRPCCPPRP | -0.159
124 | RRIRWRPPRLPRPRPRPWWGPRP | 0.0568
125 | RRIRERPPRLPRPRPRPLDHPRP | -0.155

Row | Sequence | shrunken log2 fold change
126 | RRIRNRPPRLPRPRPRPKRCPRP | 0.406
127 | RRIRMRPPRLPRPRPRPCFWPRP | 0.237
128 | RRIRIRPPRLPRPRPRPCYKPRP | -0.049
129 | RRIRSRPPRLPRPRPRPPMWPRP | 0.54
130 | RRIRVRPPRLPRPRPRPGCFPRP | 0.15
131 | RRIRDRPPRLPRPRPRPLWWPRP | 0.721
132 | RRIRERPPRLPRPRPRPEIAPRP | -0.0389
133 | RRIRERPPRLPRPRPRPRNRPRP | -0.134
134 | RRIRMRPPRLPRPRPRPHIGPRP | -0.00118
135 | RRIRTRPPRLPRPRPRPVSIPRP | -0.082
136 | RRIRKRPPRLPRPRPRPLGWPRP | 1.11
137 | RRIRDRPPRLPRPRPRPPISPRP | 0.024
138 | RRIRWRPPRLPRPRPRPMYMPRP | 0.0903
139 | RRIRCRPPRLPRPRPRPPWIPRP | -0.209
140 | RRIRGRPPRLPRPRPRPCLQPRP | 0.264
141 | RRIRLRPPRLPRPRPRPVKQPRP | -0.0196
142 | RRIRHRPPRLPRPRPRPQAMPRP | -0.00822
143 | RRIRNRPPRLPRPRPRPRWPPRP | 0.286
144 | RRIRSRPPRLPRPRPRPSKMPRP | -0.0555
145 | RRIRPRPPRLPRPRPRPTDTPRP | -0.00249
146 | RRIRYRPPRLPRPRPRPMQCPRP | -0.00134
147 | RRIRMRPPRLPRPRPRPEASPRP | 3.48
148 | RRIRTRPPRLPRPRPRPRPVPRP | 0.407
149 | RRIRRRPPRLPRPRPRPKNHPRP | -0.0297
150 | RRIRVRPPRLPRPRPRPSGMPRP | 0.489
